Here are results for 6 variants from the supplement of paper PMC11908140.

B1: library; numbered along this chain (parent)
chain: MRKPRAAVGSGHRKQAASQEGRQKHAKNNSQAKPSACDGLARQPEEVVLQASVSSYHLFRDVAEVTAFRGSLLSWYDQEKRDLPWRRRAEDEMDLDRRAYAVWVSEVMLQQTQVATVINYYTGWMQKWPTLQDLASASLEEVNQLWAGLGYYSRGRRLQEGARKVVEELGGHMPRTAETLQQLLPGVGRYTAGAIASIAFGQATGVVDGNVARVLCRVRAIGADPSSTLVSQQLWGLAQQLVDPARPGDFNQAAMELGATVCTPQRPLCSQCPVESLCRARQRVEQEQLLASGSLSGSPDVEECAPNTGQCHLCLPPSEPWDQTLGVVNFPRKASRKPPREESSATCVLEQPGALGAQILLVQRPNSGLLAGLWEFPSVTWEPSEQLQRKALLQELQRWAGPLPATHLRHLGEVVHTFSHIKLTYQVYGLALEGQTPVTTVPPGARWLTQEEFHTAAVSTAMKKVFRVYQGQQPGTCMGSKRSQVSSPCSRKKPRMGQQVLDNFFRSHISTDAHSLNSAAQ
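Further: cells sorted at 72 h after reporter transfection.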

The data set covers variants of B1. Description: 8OG:A repair function score (normalized; synonymous = 0, nonsense = -1) (normalized log-likelihood score); higher = more repair activity (WT-like). Particulars: with 8OG:A DNA repair reporter (GFP) in HEK-293 MUTYH KO cells. The procedure, abridged:
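Lentiviral MUTYH cDNA NNN codon-scan libraries were expressed in MUTYH knockout HEK-293 cells with 10 pg/ml doxycycline, and the cells received an 8OG:A GFP repair reporter together with mCherry. At 72 h, viable mCherry+ cells went into GFP+ (repair) or GFP− bins, three replicates per tile, before tile amplicons were sequenced. A repair function score was then built from per-tile Rosace fitness scores, anchored on the synonymous and nonsense distributions. Synonymous medians sat at 0 and nonsense at -1, and variants under 300 counts per million at the start were left out.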
As for MRKPRAAVGSGHRKQAASQEGRQKHAKNNSQAKPSACDGLARQPEEVVLQASVSSYHLFRDVAEVTAFRGSLLSWYDQEKRDLPWRRRAEDEMDLDRRAYAVWVSEVMLQQTQVATVINYYTGWMQKWPTLQDLASASLEEVNQLWAGLGYYSRGRRLQEGARKVVEELGGHMPRTAETLQQLLPGVGRYTAGAIASIAFGQATGVVDGNVARVLCRVRAIGADPSSTLVSQQLWGLAQQLVDPARPGDFNQAAMELGATVCTPQRPLCSQCPVESLCRARQRVEQEQLLASGSLSGSPDVEECAPNTGQCHLCLPPSEPWDQTLGVVNFPRKASRKPPREESSATCVLEQPGALGAQILLVQRPNSGLLAGLWEFPSVTWEPSEQLQRKALLQELQRWAGPLPATHLRHLGEVVHTFSHIKLTYQVYGLALEGQTPVTTVPPGARWLTQEEFHTAAVSTAMKKVFRVYQGQQPGTCMGSKRSQVSSPCSRKKPRPGQQVLDNFFRSHISTDAHSLNSAAQ [M496P], the “8OG:A repair function score” value is -3.86e-05.

Regarding MRKPRAAVGSGHRKQAASQEGRQKHAKNNSQAKPSACDGLARQPEEVVLQASVSSYHLFRDVAEVTAFRGSLLSWYDQEKRDLPWRRRAEDEMDLDRRAYAVWVSEVMLQQTQVATVINYYTGWMQKWPTLQDLASASLEEVNQLWAGLGYYSRGRRLQEGARKVVEELGGHMPRTAETLQQLLRGVGRYTAGAIASIAFGQATGVVDGNVARVLCRVRAIGADPSSTLVSQQLWGLAQQLVDPARPGDFNQAAMELGATVCTPQRPLCSQCPVESLCRARQRVEQEQLLASGSLSGSPDVEECAPNTGQCHLCLPPSEPWDQTLGVVNFPRKASRKPPREESSATCVLEQPGALGAQILLVQRPNSGLLAGLWEFPSVTWEPSEQLQRKALLQELQRWAGPLPATHLRHLGEVVHTFSHIKLTYQVYGLALEGQTPVTTVPPGARWLTQEEFHTAAVSTAMKKVFRVYQGQQPGTCMGSKRSQVSSPCSRKKPRMGQQVLDNFFRSHISTDAHSLNSAAQ [P185R], the “8OG:A repair function score” value was -0.264. Consider MRKPRAAVGSGHRKQAASQEGRQKHAKNNSQAKPSACDGLARQPEEVVLQASVSSYHLFRDVAEVTAFRGSLLSWYDQEKTDLPWRRRAEDEMDLDRRAYAVWVSEVMLQQTQVATVINYYTGWMQKWPTLQDLASASLEEVNQLWAGLGYYSRGRRLQEGARKVVEELGGHMPRTAETLQQLLPGVGRYTAGAIASIAFGQATGVVDGNVARVLCRVRAIGADPSSTLVSQQLWGLAQQLVDPARPGDFNQAAMELGATVCTPQRPLCSQCPVESLCRARQRVEQEQLLASGSLSGSPDVEECAPNTGQCHLCLPPSEPWDQTLGVVNFPRKASRKPPREESSATCVLEQPGALGAQILLVQRPNSGLLAGLWEFPSVTWEPSEQLQRKALLQELQRWAGPLPATHLRHLGEVVHTFSHIKLTYQVYGLALEGQTPVTTVPPGARWLTQEEFHTAAVSTAMKKVFRVYQGQQPGTCMGSKRSQVSSPCSRKKPRMGQQVLDNFFRSHISTDAHSLNSAAQ [R81T], for which the “8OG:A repair function score” value is -0.765. MRKPRAAVGSGHRKQAASQEGRQKHAKNNSQAKPSACDGLARQPEEVVLQASVSSYHLFRDVAEVTAFRGSLLSWYDQEKRDLPWRRRAEDEMDLDRRAYAVWVSEVMLQQTQVATVINYYTGWMQKWPTLQDLASASLEEVNQLWAGLGYYSRGRRLQEGARKVVEELGGHMPRTAETLQQLLPGVGRYTAGAIASIAFGQATGVVDGNVARVLCRVRAIGADPSSTLVSQQLWGLAQQLVDPARPGDFNQAAMELGATVCTPQRPLCSQCPVESLCRARQRVEQEQLLASGSLSGSPDVEECAPNTGQCHLCLPPSEPWDQTLGVVNFPRKASRKPPREESSATCVLEQPGALGAQFLLVQRPNSGLLAGLWEFPSVTWEPSEQLQRKALLQELQRWAGPLPATHLRHLGEVVHTFSHIKLTYQVYGLALEGQTPVTTVPPGARWLTQEEFHTAAVSTAMKKVFRVYQGQQPGTCMGSKRSQVSSPCSRKKPRMGQQVLDNFFRSHISTDAHSLNSAAQ [I359F]: the “8OG:A repair function score” value turned out to be 0.0413. With MRKPRAAVGSGHRKQAASQEGRQKHAKNNSQAKPSACDGLARQPEEVVLQASVSSYHLFRDVAEVTAFRGSLLSWYDQEKRDLPWRRRAEDEMDLDRRAYAVWVSEVMLQQTQVATVINYYTGWMQKWPTLQDLASASLEEVNQLWAGLGYYSRGRRLQEGARKVVEELGGHMPRTAETLQQLLPGVGRYTAGAIASIAFGQATGVVDGNVARVLCRVRAIGADPSSTLVSQQLWGLAQQLVDPARPGDFNQAAMELGATVCTPQRPLCSFCPVESLCRARQRVEQEQLLASGSLSGSPDVEECAPNTGQCHLCLPPSEPWDQTLGVVNFPRKASRKPPREESSATCVLEQPGALGAQILLVQRPNSGLLAGLWEFPSVTWEPSEQLQRKALLQELQRWAGPLPATHLRHLGEVVHTFSHIKLTYQVYGLALEGQTPVTTVPPGARWLTQEEFHTAAVSTAMKKVFRVYQGQQPGTCMGSKRSQVSSPCSRKKPRMGQQVLDNFFRSHISTDAHSLNSAAQ [Q271F], the “8OG:A repair function score” value is -0.0282. Turning to MRKPRAAVGSGHRKQAASQEGRQKHAKNNSQAKPSACDGLARQPEEVVLQASVSSYHLFRDVAEVTAFRGSLLSWYDQEKRDLPWRRRAEDEMDLDRRAYAVWVSEVMLQQTQVATVINYYTGWMQKWPTLQDLASASLEEVNQLWAGLGYYSRGRRLQEGARKVVEELGGHMPRTAETLQQLLPGVGRYTAGAIASIAFGQATGVVDGNVARVLCRVRAIGADPSSTLVSQQLWGLAQQLVDPARPGDFNQAAMELGATVCTPQRPLCSQCPVESLCRARQRVEQEQLLASGSLSGSPDVEECAPNTGQCHLCLPPSEPWDQTLGVVNFPRKASRKPPREESSATCVLEQPGALGAQILLVQRPNSGLLAGLWEFPSVTWEPSEQLQRKALLQELQRWAGPLPATHLRHLGEVVHTFSKIKLTYQVYGLALEGQTPVTTVPPGARWLTQEEFHTAAVSTAMKKVFRVYQGQQPGTCMGSKRSQVSSPCSRKKPRMGQQVLDNFFRSHISTDAHSLNSAAQ [H420K], the “8OG:A repair function score” value was -0.792.
